The record followed here is article PMC8733390, “Transcription Factor CitERF16 Is Involved in Citrus Fruit Sucrose Accumulation by Activating CitSWEET11d”.

The target in the data set is T1, CitERF16 (Citrus, UniProt V4VLW3 1-243).
T1 sequence: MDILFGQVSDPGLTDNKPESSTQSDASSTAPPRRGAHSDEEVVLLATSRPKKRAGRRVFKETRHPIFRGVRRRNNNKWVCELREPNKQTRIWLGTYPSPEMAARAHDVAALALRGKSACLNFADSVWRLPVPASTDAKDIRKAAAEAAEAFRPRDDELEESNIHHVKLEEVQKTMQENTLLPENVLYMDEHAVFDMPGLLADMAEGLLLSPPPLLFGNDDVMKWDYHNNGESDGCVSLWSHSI
Nature of the data set: EMSA; unlabelled same-sequence probe reduced binding; LightShift Chemiluminescent EMSA kit (Thermo), per manufacturer; buffer, salt, pH and temperature not stated. The settings on record: protein: recombinant; tags: His (pET-32a vector fusion); label: 3'-biotin; blunt. For orientation: Mobility shift assays separate free from complexed probe on a gel.

B1: CitSWEET11d promoter probe (dsDNA)
DNA 1: AAACGATGTCGGTACTCGGTCCGCATGCAATCATACAAAACAACAAGAAT
DNA 2: ATTCTTGTTGTTTTGTATGATTGCATGCGGACCGAGTACCGACATCGTTT
For the molecule B1, the binding result is “binds”.
